Measured values: patent US20140072613A1, “Compositions and Methods for Treating Cutaneous Scarring” (priority 2012, published 2014)

Assays:
Test in all cases: biochemical
Format in all cases: biochemical
266 human kinases [1] = target: 266 human kinases (Homo sapiens, UniProt P00533); conditions: EGFR(h); 100 μM
Procedure, shortened: (§1)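 Read-out by scintillation counting of radiolabelled, positively charged substrate bound to negatively charged filter; activity normalised to 100% control. Phosphate transferred from radiolabelled ATP.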

266 human kinases [2] = target: 266 human kinases (Homo sapiens, UniProt P06241); conditions: Fyn(h); 100 μM
Procedure, shortened: as §1

266 human kinases [3] = target: 266 human kinases (Homo sapiens, UniProt P08581); conditions: Met(h); 100 μM
Procedure, shortened: as §1

266 human kinases [4] = target: 266 human kinases (Homo sapiens, UniProt P12931); conditions: 100 μM
Procedure, shortened: as §1

266 human kinases [5] = target: 266 human kinases (Homo sapiens, UniProt P16591); conditions: Fer(h); 100 μM
Procedure, shortened: as §1

266 human kinases [6] = target: 266 human kinases (Homo sapiens, UniProt P51617); conditions: IRAK1(h); 100 μM
Procedure, shortened: as §1

266 human kinases [7] = target: 266 human kinases (Homo sapiens, UniProt P51812); conditions: Rsk2(h); 100 μM
Procedure, shortened: as §1

266 human kinases [8] = target: T1, 266 human kinases (Homo sapiens, UniProt P54753); conditions: EphB3(h); 100 μM
T1 sequence (P54753 34-998): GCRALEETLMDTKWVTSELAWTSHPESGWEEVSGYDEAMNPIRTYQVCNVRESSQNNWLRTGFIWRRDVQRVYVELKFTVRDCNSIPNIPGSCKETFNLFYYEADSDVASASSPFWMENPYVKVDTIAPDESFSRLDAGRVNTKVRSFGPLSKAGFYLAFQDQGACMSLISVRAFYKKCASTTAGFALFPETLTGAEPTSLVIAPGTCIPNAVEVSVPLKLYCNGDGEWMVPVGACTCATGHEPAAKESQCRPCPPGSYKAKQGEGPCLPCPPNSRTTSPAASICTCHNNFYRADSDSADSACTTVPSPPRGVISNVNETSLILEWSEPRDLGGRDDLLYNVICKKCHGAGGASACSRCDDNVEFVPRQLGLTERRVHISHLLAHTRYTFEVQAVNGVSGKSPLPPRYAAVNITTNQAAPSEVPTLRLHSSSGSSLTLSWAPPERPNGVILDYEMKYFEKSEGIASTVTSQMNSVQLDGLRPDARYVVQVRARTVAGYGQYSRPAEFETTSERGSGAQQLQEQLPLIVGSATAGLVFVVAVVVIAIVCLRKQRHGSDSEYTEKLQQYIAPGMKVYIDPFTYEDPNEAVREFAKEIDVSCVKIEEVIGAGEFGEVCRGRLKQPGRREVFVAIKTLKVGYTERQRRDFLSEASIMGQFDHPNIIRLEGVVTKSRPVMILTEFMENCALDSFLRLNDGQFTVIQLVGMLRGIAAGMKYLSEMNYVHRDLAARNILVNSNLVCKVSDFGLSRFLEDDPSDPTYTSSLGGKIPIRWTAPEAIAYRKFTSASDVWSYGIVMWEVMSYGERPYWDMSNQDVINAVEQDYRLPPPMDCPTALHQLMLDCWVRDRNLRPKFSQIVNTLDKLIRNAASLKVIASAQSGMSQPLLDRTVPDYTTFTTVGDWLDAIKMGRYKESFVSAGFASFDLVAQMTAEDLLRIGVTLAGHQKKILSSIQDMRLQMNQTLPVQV
Procedure, shortened: as §1

266 human kinases [9] = target: 266 human kinases (Homo sapiens, UniProt P54756); conditions: EphA5(h); 100 μM
Procedure, shortened: as §1

266 human kinases [10] = target: 266 human kinases (Homo sapiens, UniProt Q86V86); conditions: Pim-3(h); 100 μM
Procedure, shortened: as §1

266 human kinases [11] = target: T2, 266 human kinases (Homo sapiens, UniProt Q8NG66); conditions: NEK11(h); 100 μM
T2 sequence (Q8NG66 1-645): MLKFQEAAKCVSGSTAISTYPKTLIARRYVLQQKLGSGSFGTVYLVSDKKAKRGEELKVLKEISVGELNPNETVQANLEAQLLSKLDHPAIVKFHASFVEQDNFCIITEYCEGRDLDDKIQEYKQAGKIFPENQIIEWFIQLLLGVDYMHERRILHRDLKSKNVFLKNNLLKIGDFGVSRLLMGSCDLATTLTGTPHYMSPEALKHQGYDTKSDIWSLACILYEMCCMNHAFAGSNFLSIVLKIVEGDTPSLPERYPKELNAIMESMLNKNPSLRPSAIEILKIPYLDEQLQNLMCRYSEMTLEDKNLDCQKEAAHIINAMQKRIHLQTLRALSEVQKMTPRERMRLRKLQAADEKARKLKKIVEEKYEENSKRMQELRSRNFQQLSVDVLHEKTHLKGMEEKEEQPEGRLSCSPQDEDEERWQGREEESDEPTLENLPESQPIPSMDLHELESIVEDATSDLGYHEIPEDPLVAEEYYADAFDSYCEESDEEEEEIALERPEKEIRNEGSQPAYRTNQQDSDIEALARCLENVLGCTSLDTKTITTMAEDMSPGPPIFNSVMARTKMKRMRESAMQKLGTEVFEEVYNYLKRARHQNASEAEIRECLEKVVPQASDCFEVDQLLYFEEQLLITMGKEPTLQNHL
Procedure, shortened: as §1

266 human kinases [12] = target: 266 human kinases (Homo sapiens, UniProt Q96RG2); conditions: PASK(h); 100 μM
Procedure, shortened: as §1

266 human kinases (Homo sapiens, UniProt P16591), sequence (P16591 whole entry): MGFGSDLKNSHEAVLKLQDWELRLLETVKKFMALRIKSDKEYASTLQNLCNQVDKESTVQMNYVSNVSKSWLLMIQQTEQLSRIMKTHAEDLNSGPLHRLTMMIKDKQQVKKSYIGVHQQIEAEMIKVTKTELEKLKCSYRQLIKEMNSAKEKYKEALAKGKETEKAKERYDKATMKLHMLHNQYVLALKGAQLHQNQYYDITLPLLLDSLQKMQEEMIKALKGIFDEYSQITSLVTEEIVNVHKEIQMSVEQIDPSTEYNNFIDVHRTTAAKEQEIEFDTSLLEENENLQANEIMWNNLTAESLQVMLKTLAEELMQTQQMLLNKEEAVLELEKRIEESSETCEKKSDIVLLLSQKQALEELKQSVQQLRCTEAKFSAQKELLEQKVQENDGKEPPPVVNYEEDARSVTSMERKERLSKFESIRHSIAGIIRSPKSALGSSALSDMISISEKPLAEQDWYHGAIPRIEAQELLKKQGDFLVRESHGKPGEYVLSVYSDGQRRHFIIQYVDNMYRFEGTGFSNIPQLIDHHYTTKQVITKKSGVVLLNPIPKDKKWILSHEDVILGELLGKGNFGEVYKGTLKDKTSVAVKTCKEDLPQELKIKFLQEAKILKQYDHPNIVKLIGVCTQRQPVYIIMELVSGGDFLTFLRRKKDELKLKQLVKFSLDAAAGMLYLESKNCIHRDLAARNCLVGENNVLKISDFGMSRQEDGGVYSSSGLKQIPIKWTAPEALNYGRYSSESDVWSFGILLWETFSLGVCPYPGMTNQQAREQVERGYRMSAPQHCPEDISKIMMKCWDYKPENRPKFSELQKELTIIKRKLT
266 human kinases (Homo sapiens, UniProt P06241), sequence (P06241 whole entry): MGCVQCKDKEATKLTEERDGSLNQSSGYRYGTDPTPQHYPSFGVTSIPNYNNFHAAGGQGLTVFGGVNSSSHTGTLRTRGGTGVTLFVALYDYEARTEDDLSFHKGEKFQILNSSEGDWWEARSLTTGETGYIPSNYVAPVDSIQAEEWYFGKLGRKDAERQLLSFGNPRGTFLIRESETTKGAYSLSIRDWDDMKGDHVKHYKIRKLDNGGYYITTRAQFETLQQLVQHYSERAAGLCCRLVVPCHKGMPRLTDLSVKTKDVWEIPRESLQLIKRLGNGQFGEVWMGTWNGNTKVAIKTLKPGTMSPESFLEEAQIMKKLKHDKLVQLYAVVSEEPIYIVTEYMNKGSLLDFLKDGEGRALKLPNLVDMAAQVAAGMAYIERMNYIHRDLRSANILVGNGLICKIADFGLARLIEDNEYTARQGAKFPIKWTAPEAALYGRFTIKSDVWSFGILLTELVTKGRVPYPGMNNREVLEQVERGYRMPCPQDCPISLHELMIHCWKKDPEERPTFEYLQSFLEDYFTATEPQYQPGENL
266 human kinases (Homo sapiens, UniProt P54756), sequence (P54756 25-1037): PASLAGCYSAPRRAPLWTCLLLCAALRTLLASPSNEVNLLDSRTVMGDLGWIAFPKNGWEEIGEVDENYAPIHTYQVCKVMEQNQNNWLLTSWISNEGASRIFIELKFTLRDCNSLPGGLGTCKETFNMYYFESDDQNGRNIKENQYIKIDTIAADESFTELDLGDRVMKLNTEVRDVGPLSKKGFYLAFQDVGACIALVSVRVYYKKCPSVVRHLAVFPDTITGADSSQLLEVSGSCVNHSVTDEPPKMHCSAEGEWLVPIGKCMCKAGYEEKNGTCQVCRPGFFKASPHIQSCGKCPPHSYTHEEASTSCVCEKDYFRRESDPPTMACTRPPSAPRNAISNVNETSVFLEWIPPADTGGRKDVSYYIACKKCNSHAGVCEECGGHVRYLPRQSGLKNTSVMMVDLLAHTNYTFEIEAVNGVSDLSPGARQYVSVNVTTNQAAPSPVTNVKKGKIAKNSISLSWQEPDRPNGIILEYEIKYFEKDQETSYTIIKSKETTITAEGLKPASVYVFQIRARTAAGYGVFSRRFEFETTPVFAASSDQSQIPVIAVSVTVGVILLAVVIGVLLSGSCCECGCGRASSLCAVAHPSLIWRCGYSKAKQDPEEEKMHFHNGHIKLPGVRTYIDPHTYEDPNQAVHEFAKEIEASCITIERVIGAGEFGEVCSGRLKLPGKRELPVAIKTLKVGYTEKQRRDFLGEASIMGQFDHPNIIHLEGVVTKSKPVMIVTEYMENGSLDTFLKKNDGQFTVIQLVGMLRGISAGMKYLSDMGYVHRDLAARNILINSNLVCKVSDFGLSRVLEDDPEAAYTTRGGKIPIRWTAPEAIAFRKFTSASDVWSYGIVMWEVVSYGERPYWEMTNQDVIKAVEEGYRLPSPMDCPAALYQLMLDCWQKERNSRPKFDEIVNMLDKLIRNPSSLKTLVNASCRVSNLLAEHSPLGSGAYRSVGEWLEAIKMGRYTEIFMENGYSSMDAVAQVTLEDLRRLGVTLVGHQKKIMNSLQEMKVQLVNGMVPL
266 human kinases (Homo sapiens, UniProt P51812), sequence (P51812 whole entry): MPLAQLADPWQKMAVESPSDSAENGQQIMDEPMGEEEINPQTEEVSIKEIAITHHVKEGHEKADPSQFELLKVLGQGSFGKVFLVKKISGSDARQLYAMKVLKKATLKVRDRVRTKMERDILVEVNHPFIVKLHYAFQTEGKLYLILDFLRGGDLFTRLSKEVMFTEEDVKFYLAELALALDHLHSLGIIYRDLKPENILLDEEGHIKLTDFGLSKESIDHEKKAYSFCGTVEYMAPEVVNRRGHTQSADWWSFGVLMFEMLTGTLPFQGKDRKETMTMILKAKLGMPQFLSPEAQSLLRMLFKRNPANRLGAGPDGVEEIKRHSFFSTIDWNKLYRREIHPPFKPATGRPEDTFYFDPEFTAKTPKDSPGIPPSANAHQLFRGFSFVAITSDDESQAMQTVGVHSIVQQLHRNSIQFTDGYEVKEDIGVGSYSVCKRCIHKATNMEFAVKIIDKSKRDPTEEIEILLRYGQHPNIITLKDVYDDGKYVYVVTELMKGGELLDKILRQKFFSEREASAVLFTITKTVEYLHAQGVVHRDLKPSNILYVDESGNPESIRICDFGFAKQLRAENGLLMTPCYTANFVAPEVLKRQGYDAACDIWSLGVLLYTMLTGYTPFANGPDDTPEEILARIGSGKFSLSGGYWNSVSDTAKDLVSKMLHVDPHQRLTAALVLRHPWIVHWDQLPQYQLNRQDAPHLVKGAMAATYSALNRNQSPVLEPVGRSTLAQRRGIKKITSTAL
266 human kinases (Homo sapiens, UniProt P08581), sequence (P08581 25-1390): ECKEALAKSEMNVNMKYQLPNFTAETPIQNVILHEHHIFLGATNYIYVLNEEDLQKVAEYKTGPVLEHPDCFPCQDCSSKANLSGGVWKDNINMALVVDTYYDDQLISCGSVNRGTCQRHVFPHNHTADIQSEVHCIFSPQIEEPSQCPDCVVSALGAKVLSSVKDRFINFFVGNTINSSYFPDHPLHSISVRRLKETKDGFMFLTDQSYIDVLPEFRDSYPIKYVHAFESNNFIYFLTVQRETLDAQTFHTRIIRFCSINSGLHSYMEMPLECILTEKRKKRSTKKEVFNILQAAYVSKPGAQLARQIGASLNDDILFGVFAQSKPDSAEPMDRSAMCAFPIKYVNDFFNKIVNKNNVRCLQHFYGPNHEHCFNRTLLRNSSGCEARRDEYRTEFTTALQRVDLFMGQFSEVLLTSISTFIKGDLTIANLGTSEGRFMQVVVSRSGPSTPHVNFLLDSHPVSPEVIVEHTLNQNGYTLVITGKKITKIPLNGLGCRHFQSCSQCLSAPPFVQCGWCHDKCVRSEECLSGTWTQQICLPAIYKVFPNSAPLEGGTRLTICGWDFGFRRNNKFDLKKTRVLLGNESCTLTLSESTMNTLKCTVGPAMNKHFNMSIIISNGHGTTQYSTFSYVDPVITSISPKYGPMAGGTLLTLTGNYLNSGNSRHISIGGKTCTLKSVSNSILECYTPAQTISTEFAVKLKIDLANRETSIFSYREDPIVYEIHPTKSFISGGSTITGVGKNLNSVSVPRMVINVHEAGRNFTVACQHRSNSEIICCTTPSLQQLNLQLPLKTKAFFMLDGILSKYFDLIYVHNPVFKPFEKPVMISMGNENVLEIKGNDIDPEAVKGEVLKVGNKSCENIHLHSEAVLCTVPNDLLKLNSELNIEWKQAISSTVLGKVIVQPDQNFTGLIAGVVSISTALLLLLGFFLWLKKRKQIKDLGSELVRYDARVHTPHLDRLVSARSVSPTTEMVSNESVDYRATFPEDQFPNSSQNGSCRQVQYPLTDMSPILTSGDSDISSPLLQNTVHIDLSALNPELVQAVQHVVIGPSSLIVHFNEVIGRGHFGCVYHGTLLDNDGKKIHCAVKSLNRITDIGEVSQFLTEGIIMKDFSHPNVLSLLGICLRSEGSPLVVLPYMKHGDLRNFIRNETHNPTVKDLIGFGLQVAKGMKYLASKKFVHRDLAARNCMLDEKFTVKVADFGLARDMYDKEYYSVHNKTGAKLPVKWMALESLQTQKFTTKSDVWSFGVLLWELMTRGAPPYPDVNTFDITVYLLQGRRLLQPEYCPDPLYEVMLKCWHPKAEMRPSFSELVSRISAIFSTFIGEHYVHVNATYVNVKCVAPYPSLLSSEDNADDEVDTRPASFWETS

Row | Sequence | % activity (266 human kinases [1]) [%] | % activity (266 human kinases [2]) [%] | % activity (266 human kinases [3]) [%] | % activity (266 human kinases [4]; Src(1-530)(h)) [%] | % activity (266 human kinases [4]; cSRC(h)) [%] | % activity (266 human kinases [5]) [%] | % activity (266 human kinases [6]) [%] | % activity (266 human kinases [7]) [%] | % activity (266 human kinases [8]) [%] | % activity (266 human kinases [9]) [%] | % activity (266 human kinases [10]) [%] | % activity (266 human kinases [11]) [%] | % activity (266 human kinases [12]) [%]
1 | HRRIKAWLKKIKALARQLGVAA (mammal) [MMI-0500] | −1 | 83 | 27 | 21 | 30 | 196 | 5 | 14 | 79 | 42 | 37 | 2 | 9
2 | YARAAARQARAKALNRQLGVA (mammal) [MMI-0200] | 83 | 75 | 71 | 75 | 32 | 101 | 101 | 101 | 128 | 123 | 94 | 95 | 60
